According to a protein production outcome set (Wang et al. 2014):

experiment: label from the status in PepcDB records

Protein production, not failed:
MSLRTKGNAELILQIDAYLPDTYISDQRHKIEIYKKIRQIDNRVNYEELQEELIDRFGEYPDVVAYLLEIGLVKSYLDKVFVQRVERKDNKITIQFEKVTQRLFLAQDYFKALSVTNLKAGIAENKGLMELVFDVQNKKDYEILEGLLIFGESLLEIKESKEKNSEGHHHHHH
MSLRTQLIAVLIDDYSNPWFIDLIQSLSDVLTPKGYRLSVIDSLTSQAGTDPITSALSMRPDGIIIAQDIPDFTVPDSLPPFVIAGTRITQASTHDSVANDDFRGAEIATKHLIDLGHTHIAHLRVGSGAGLRRFESFEATMRAHGLEPLSNDYLGPAVEHAGYTETLALLKEHPEVTAIFSSNDITAIGALGAARELGLRVPEDLSIIGYDNTPLAQTRLINLTTIDDNSIGVGYNAALLLLSMLDPEAPHPEIMHTLQPSLIERGTCAPREGHHHHHH
MSLSDDPMASIKLLNLERENSAIAQYQSNIANLKTTLSSQETHLDSVSESLKSMRDIVLWGANGSLTDQDRSGMITELKSYRDSIESSFNAQDEEGHFLFSGTKTDTAALNKSSGAYVVEGNSDVRVVTVAKGVTMDSNMTAQEILDIGGGKNVLNQIDALIAEFEKPSPNFQAEVDASLNAIDDTMANVLGAMTEIGGRHNNLDLMDGAHSENKLFVDKVSGDLSALDYGEGHHHHHH
MSLSEGTFEVGKNTFLLNGEPFVVKAAEIHYPRIPKEYWEHRIKMCKALGMNTICLYVFWNFHEPEEGRYDFAGQKDIAAFCRLAQENGMYVIVRPGPYVCAEWEMGGLPWWLLKKKDIKLREQDPYYMERVKLFLNEVGKQLADLQISKGGNIIMVQVENEYGAFGIDKPYISEIRDMVKQAGFTGVPLFQCDWNSNFENNALDDLLWTINFGTGANIDEQFKRLKELRPDTPLMCSEFWSGWFDHWGAKHETRSAEELVKGMKEMLDRNISFSLYMTHGGTSFGHWGGANFPNFSPTCTSYDYDAPINESGKVTPKYLEVRNLLGNYLPEGETLPEIPDSIPTIAIPTIKMTEMAVLFDNLPHPKESEDIRTMEAFDQGWGSILYRTSLSASDKEQTLLITEAHDWAQVFLNGKKLATLSRLKGEGVVKLPPLKEGDRLDILVEAMGRMNFGKGIYDWKGITEKVELQSDKGVELVKDWQVYTIPVDYSFARDKQYKQQENAENQPAYYRSTFNLNELGDTFLNMMNWSKGMVWVNGHAIGRYWEIGPQQTLYVPGCWLKKGENEIIILDMAGPSKAETEGLRQPILDVQRGNGAYAHRKMGEGHHHHHH
MSLSEIKHWVFDMDGTLTIAVHDFAAIREALSIPAEDDILTHLAALPADESAAKHAWLLEHERDLAQGSRPAPGAVELVRELAGRGYRLGILTRNARELAHVTLEAIGLADCFAEADVLGRDEAPPKPHPGGLLKLAEAWDVSPSRMVMVGDYRFDLDCGRAAGTRTVLVNLPDNPWPELTDWHARDCAQLRDLLSA
MSLSKKTIYIAGLGLIGGSLALGIKRDHPDYEILGYNRSDYSRNIALERGIVDRATGDFKEFAPLADVIILAVPIKQTMAYLKELADLDLKDNVIITDAGSTKREIVEAAERYLTGKNVQFVGSHPMAGSHKSGAIAADVTLFENAYYIFTPTSLTKETTIPELKDILSGLKSRYVEIDAAEHDRVTSQISHFPHLLASGLMEQAADYAQAHEMTNHFAAGGFRDMTRIAESEPGMWASILMTNGPAVLDRIEDFKKRLDHVADLIKAEDESAIWEFFDNGRKKRKEMEIHKKGGVESAFDIFVDVPDREGHHHHHH
MSLSKPLFIFEMANNHMGNVEHGVALIRAIRESCQGFDFDFGFKLQYRNLDTFIHSSFKGRDDVKYVKRFEETRLQPEQMQKLVAEMKANGFKAICTPFDEESVDLIEAHGIEIIKIASCSFTDWPLLERIARSDKPVVASTAGARREDIDKVVSFMLHRGKDLTIMHCVAEYPTPDDHLHLARIKTLRQQYAGVRIGYSTHEDPDLMEPIMLAVAQGATVFEKHVGLPTDQYGINNYSANPEQVRRWLAAAARALAMLGDGEDDAVSETEQASLRSLRRGVFATRPVAAGEALTADNVSFAFPPVEGQLTANEWSKYVRYTAKTPIAADAPVMAADLEPVNEGHHHHHH
MSLSKVFTIGEILVEIMASKIGQPFDQPGIWNGPYPSGAPAIFIDQVTRLGVPCGIISCVGNDGFGDINIHRLAADGVDIRGISVLPLEATGSAFVTYHNSGDRDFIFNIKNAACGKLSAQHVDENILKDCTHFHIMGSSLFSFHMVDAVKKAVTIVKANGGVISFDPNIRKEMLDIPEMRDALHFVLELTDIYMPSEGEVLLLSPHSTPERAIAGFLEEGVKEVIVKRGNQGASYYSANEQFHVESYPVEEVDPTGAGDCFGGAWIACRQLGFDAHRALQYANACGALAVTRRGPMEGTSRLMEIETFIQRHDMSIREAAQEGHHHHHH
